Results reported in patent US20260374871 (published 2026).
One block for each binder: values may come before it.

Target: human CTLA-4 (human, UniProt P16410)
Test: BLI

Chain of human CTLA-4 (P16410 36-161): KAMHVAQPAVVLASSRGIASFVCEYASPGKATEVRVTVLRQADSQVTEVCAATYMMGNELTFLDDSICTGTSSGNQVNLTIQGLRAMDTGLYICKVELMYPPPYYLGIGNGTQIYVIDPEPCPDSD

Kd: 0.155 nM
B1: GBD008-hS005-5 (designed binder)
chain: EVQLVESGGGLVQPGGSLRLSCAASGRTASSNAMAWFRQAPGKEREFVSAISATGGLTAYADSVKGRFTISRDNSKNTLYLQMNSLRAEDTAVYIGAVGRERWYLRHTENEYDYWGQGTLVTVSS

Kd: 0.269 nM
B2: GBD008-hS005 (designed binder)
chain: QVQLVESGGGLVEAGGSLRLSCATSGRTASSNAMAWFRQAPGKEREFVAAISATGGLTAYADSVKGRFTISRDNSKNAVYLQMNTLKPEDTAVYIGAVGRERWYLRHTENEYDYWGRGAQVTVSS
